Assay results published in article PMC6677129.

Target: repeat domain (RPT) of Pmel17 (human) (UniProt P40967)
Experiment: co-sedimentation

percent of RPT left in the supernatant, 0.1 mM LPG: 54%
percent of RPT left in the supernatant, 0.5 mM LPG: 16%
percent of protein in the supernatant, 0 mM LPG: 108%
percent of protein in the supernatant, 10 mM LPG: 92%
Substance: repeat domain (RPT) of Pmel17 (from UniProt P40967 315-444) (domain or fragment)
